Assay results: article PMC6796863, “Structural insight into human N6amt1–Trm112 complex functioning as a protein methyltransferase” (Cell Discovery, 2019)

Target: T1, human N6amt1–Trm112 complex (human, UniProt Q9Y5N5 1-214; Q9UI30 1-125)
T1 construct: human N6amt1 (HemK2), full length, 214 amino acids; human Trm112, full length; SAM co-purifies with the complex; before the ITC titration the complex was incubated with SAH at a molar ratio of 1:2; also called the protein complex; source: E. coli BL21(DE3), co-expressed from pET-Duet, purified (Ni-NTA, gel filtration)
T1 sequence (looked up) 1: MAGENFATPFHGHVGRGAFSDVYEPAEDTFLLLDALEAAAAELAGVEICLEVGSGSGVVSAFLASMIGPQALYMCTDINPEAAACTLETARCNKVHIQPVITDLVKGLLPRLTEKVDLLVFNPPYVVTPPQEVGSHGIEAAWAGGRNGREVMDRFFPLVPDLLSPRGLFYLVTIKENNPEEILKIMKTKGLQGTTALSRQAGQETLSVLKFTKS
T1 sequence (looked up) 2: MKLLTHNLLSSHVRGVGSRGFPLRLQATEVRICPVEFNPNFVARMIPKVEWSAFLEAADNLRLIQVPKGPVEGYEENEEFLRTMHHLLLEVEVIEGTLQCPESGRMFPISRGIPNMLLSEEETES
Assay: ITC; 2 mM peptide injected into 0.1 mM N6amt1–Trm112 in the cell, 20 °C; complex incubated beforehand with SAH at a molar ratio of 1:2; single binding site model
Details: both partners purified

B1: Gln185-centered 15-residue peptide of human eRF1 (GGQ peptide) (peptide)
peptide: KKHGRGGQSALRFAR
notes: human eRF1, 15-residue peptide centered at Gln185; also called 15-residue GGQ peptide of eRF1
- Kd: 490 ± 150 µM
